In paper PMC9596381 (2022) one finds Kd data, which are given here for 2 molecules.

Assay [1] deals with T1, human glypican-3 core domain, residues 32-483 (hGPC3^core) (human, UniProt P51654 32-483, N-linked glycans at N124 and N241). The experiment in a line: SPR. (Surface plasmon resonance follows binding to a sensor surface in real time, without labels.)
For assay [2], the target named is T1, human glypican-3 core domain, residues …. The experiment in a line: SPR. The source holds these as a separate data set.

Where two headings read alike, the source gives them in different places.

T1 sequence (P51654 32-483): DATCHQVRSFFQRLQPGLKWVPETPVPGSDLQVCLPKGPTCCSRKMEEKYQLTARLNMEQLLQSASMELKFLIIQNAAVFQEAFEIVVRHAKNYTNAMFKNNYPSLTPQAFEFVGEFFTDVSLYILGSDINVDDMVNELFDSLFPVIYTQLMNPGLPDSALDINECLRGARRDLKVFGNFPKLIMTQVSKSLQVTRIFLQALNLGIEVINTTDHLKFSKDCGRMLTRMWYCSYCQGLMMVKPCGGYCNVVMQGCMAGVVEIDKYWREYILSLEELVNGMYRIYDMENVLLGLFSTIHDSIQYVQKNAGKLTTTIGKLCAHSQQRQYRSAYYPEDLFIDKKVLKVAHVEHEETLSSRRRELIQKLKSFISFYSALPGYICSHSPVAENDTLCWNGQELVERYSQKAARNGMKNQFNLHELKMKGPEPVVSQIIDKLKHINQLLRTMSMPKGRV

B1: Rattus norvegicus Unc5D residues 32-307 (rUnc5D^IgIgTSP) (domain or fragment)
chain: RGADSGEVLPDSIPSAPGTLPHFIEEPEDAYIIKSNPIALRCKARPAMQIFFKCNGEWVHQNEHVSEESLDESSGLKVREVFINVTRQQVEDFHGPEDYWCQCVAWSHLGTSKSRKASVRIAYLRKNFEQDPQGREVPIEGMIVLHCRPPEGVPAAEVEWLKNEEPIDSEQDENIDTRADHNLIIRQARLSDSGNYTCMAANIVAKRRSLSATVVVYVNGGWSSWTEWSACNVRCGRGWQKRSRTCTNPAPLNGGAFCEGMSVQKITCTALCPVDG
modifications: C-mannosylated tryptophans W253 and W256 (TSP1)
By Kd is commonly meant the constant that tells how readily two partners part at equilibrium. The low end stands for higher affinity, the high end for lower affinity. Regarding B1, in assay [1], the equilibrium dissociation constant (Kd) is 265 nM.

B2: mouse Unc5C ectodomain (domain or fragment)
chain: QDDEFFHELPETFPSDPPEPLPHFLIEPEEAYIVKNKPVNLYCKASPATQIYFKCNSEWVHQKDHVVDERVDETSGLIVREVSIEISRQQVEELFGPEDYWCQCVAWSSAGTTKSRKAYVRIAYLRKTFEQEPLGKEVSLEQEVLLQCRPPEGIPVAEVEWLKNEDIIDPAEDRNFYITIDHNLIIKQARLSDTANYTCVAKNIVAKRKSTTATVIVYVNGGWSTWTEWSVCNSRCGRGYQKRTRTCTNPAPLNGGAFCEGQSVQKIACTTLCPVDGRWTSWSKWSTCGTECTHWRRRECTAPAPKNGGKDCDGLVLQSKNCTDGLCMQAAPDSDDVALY
modifications: biotin on the Avi-tag
B2 registered an equilibrium dissociation constant (Kd) in assay [2] of 3300 nM.
